Measured values taken from paper PMC7083938 (2020).

Experiments:
Robo1 FN1 mouse = target: T1, Robo1 FN1 mouse (Mus musculus (Mouse), UniProt O89026); test: SPR equilibrium
T1 chain: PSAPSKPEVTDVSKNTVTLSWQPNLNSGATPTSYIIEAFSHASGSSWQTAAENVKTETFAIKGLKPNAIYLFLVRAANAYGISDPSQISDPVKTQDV

Robo3 FN1 mouse = target: T2, Robo3 FN1 mouse (Mus musculus (Mouse), UniProt Q9Z2I4); test: SPR equilibrium
T2 chain: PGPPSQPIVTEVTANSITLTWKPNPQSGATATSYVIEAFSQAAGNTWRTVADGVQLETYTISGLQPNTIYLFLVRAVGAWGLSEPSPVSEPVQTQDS

B1: NELL2 mouse (protein)
chain: DIDECAEGRHYCRENTMCVNTPGSFMCICKTGYIRIDDYSCTEHDECLTNQHNCDENALCFNTVGGHNCVCKPGYTGNGTTCK
B1 was tested, and the Kd (Robo1 FN1 mouse) was 13.8 µM and the Kd (Robo3 FN1 mouse) was 0.71 µM.
